Where two headings read alike, the source gives them in different places.
Columns and labels:
[1] = tested on: COS-7, PC12, and SH-SY5Y cells; conditions: cited from earlier work
bacteriophage T4 (T4D0) [2] = assay: Growth (plaque formation) of bacteriophage T4 at 37° C. in transformed wild-type and groEL mutant strains; format: cell-based, E. coli; design: key: +++: normal plaque-forming ability relative to wild-type groEL^+ strain, in terms of both number and size; ++: 5-fold fewer plaques relative to wild-type groEL^+ strain, or both; 10-fold fewer plaques, or plaque size reduced relative to wild-type groEL^+ strain, or both; +/−: 10^2-fold fewer plaques and plaque size reduced relative to wild-type groEL^+ strain; no visible plaques (<10^−4); conditions: pJC plasmid
From the text: (§1) Bacterial and bacteriophage strains. The E. coli strains used in this study were: C41(DE3), a mutant of BL21(DE3) capable of expressing toxic genes (Miroux, B. & Walker, J. E. (1996) J. Mol. Biol. 260, 289-298); SV2 (B178groEL44), SV3 (B178groEL59) and SV6 (B178groEL673): isogenic strains carrying temperature-sensitive alleles of groEL; SV1(=B178) (Georgopoulos, C., Hendrix, R. W., Casjens, S. R. & Kaiser, A. D. (1973) J. Mol. Biol. 76, 45-60), AI90 (ΔgroEL::kan^R) [pBAD-EL] (Ivic, A., Olden, D., Wallington, E. J. & Lund, P. A. (1997) Gene 194, 1-8), and TG1 (Gibson, T. J. (1984) Ph.D. thesis, University of Cambridge, U.K). Bacteriophage λb2cI (Zeilstra-Ryalls, J., Fayet, O., Baird, L. & Georgopoulos, C. (1993) J. Bacteriol. 175, 1134-1143) was used according to standard methods (Arber, W., Enquist, L., Hohn, B., Murray, N. E. & Murray, K. (1983) in Lambda II., ed. R. W. Hendrix, J. W. r., F. W. Stahl and R. A. Weisberg (Cold Spring Harbor Laboratory, Cold Spring Harbor, N.Y.), pp. 433-466); plaque formation was assayed at 30° C. T4D0, a derivative of bacteriophage T4 (Zeilstra-Ryalls, J., Fayet, O., Baird, L. & Georgopoulos, C. (1993) J. Bacteriol. 175, 1134-1143), was used according to standard methods (Karam, J. D. (1994) Molecular biology of bacteriophage T4. (American Society for Microbiology, Washington, D.C.)); plaque formation was assayed at 37° C.
(§2) Bacteriophage λ requires the chaperonins GroES and GroEL for protein folding during morphogenesis; bacteriophage T4 requires GroEL and Gp31, the latter being encoded by the bacteriophage genome (Zeilstra-Ryalls, J., Fayet, O. & Georgopoulos, C. (1991) Annu. Rev. Microbiol. 45, 301-325). Nine groE alleles which fail to support λ growth have been sequenced (Zeilstra-Ryalls, J., Fayet, O., Baird, L. & Georgopoulos, C. (1993) J. Bacteriol. 175, 1134-1143). We examined the ability of MC7, over-expressed from the constitutive tet promoter on a high-copy number vector (see FIG. 2), to complement three mutant groEL alleles for plaque formation by λ (b2cI) at 30° C. (Table 3) and T4 at 37° C. (Table 4).

E. coli SV6 groEL673 = assay: In vivo complementation of thermosensitive groEL mutant at 43° C., strain SV6; format: cell-based; conditions: pJC plasmid, relative to growth at 30° C.
Method: (§3) In vivo complementation experiments. Complementation experiments were performed by transforming electro-competent SV2 or SV6 cells with the pJC series of expression vectors and plating an aliquot of the transformation reactions directly at 43° C. The percentage of viable cells relative to the growth at 30° C. was determined. A representative number of clones which grew at 43° C. were incubated in absence of any selective markers at permissive temperature. After prolonged growth the loss of the pJC plasmids and the ts phenotype were verified. Each experiment was performed in duplicate. Plasmids carrying no groE genes or encoding the GroE proteins were used as negative or positive controls, respectively.

E. coli SV2 groEL44 = assay: In vivo complementation of thermosensitive groEL mutant at 43° C., strain SV2; format: cell-based; conditions: pJC plasmid, relative to growth at 30° C.
Method: as §3

bacteriophage λ (b2cI) = assay: Growth (plaque formation) of bacteriophage λ at 30° C. in transformed wild-type and groEL mutant strains; format: cell-based, E. coli; design: key to Growth of bacteriophage λ, SV1 (groEL^+) / Growth of bacteriophage λ, SV2 groEL44: +++: normal plaque-forming ability relative to wild-type groEL^+ strain, in terms of both number and size; ++: 5-fold fewer plaques relative to wild-type groEL^+ strain, or both; 10-fold fewer plaques, or plaque size reduced relative to wild-type groEL^+ strain, or both; +/−: 10^2-fold fewer plaques and plaque size reduced relative to wild-type groEL^+ strain; no visible plaques (<10^−4); conditions: for Growth of bacteriophage λ, SV1 (groEL^+) / Growth of bacteriophage λ, SV2 groEL44 / Growth of bacteriophage λ, SV3 GroEL59 / Growth of bacteriophage λ, SV6 groEL673: pJC plasmid
From the text: as §1, §2

bacteriophage T4 (T4D0) [3] = assay: Growth (plaque formation) of bacteriophage T4 at 37° C. in transformed wild-type and groEL mutant strains; format: cell-based, E. coli; conditions: text prints 30° C. (Table 3)
[4] = tested on: AI90 (ΔgroEL::kan^R) [pBADEL] E. coli strain; assay: Plating ability of transformed AI90 (ΔgroEL::kan^R) [pBAD-EL] at 37° C. on depletion of GroEL; format: cell-based; design: key: +++: growth identical to that in presence of 0.2% L(+)arabinose (100%), in terms of both number and size; ++: about 50% of the colonies relative to that in presence of 0.2% L(+)arabinose; +: about 30% of the colonies; +/−: ≦5% of the colonies and size reduced relative to that in presence of 0.2% L(+)arabinose; −: no visible colonies
Method: AI90 (ΔgroEL::kan^R) [pBAD-EL] cells were transformed with the pJC vector series. Transformants were selected at 37° C. on LB supplemented with 50 μg.ml^−1 of kanamycin, 120 μg.mL^−1 of ampicillin, 25 μg.mL^1 of chloramphenicol and 0.2% L(+)arabinose. Depletion of GroEL protein was analysed at 37° C. by plating the same quantity of AI90 [pBAD-EL+pJC vectors] cells on LB plates containing 1% D(+)glucose or various amount of arabinose.
Each experiment was performed in triplicate. Plasmids carrying no groE genes or encoding the GroE proteins were used as negative or positive controls, respectively.

## CC(=O)N[C@@H](CSC(=O)[C@]1([C@@H](O)C(C)C)NC(=O)[C@H](C)[C@@H]1O)C(=O)O [lactacystin]
[1]; treatment of transfected cells
  proportion of cells with inclusions of mutant Huntington exon 1: increased

## HDJ-2/HSDJ: a human HSP40 homologue
[1]; overexpression in COS-7 cells
  inclusion formation: increased inclusion formation
[1]; overexpression in PC12 and SH-SY5Y cells
  inclusion formation: did not modify inclusion formation

B1: GroES (1-97): E. coli co-chaperone, seven membered ring of 10 kD subunits (protein, UniProt P0A6F9 1-97, looked up)
Co-chaperonin GroES: MNIRPLHDRVIVKRKEVETKSAGGIVLTGSAAAKSTRGEVLAVGNGRILENGEVKPLDVKVGDIVIFNDGYGVKSEKIDNEEVLIMSESDILAIVEA
Bacteriophage T4 (T4D0) [2]
  Growth of bacteriophage T4, SV1 (groEL^+): +++
  Growth of bacteriophage T4, SV2 groEL44: +++
  Growth of bacteriophage T4, SV3 groEL59: +++
  Growth of bacteriophage T4, SV6 groEL673: − (no visible plaques (<10^−4))
E. coli SV6 groEL673
  Relative colony forming ability, SV6 groEL673: <10^−4
E. coli SV2 groEL44
  Relative colony forming ability, SV2 groEL44: 5 × 10^−3
Bacteriophage λ (b2cI)
  Complementation of groEL mutant strains for bacteriophage λ growth (in words): allele-specific complementation
  Effect of over-expression on plaque formation by bacteriophage λ in SV1 (groE^+) (in words): had no effect
  Growth of bacteriophage λ, SV1 (groEL^+): +++
  Growth of bacteriophage λ, SV2 groEL44: +++
  Growth of bacteriophage λ, SV3 GroEL59: − (no visible plaques (<10^−4))
  Growth of bacteriophage λ, SV6 groEL673: − (no visible plaques (<10^−4))
Bacteriophage T4 (T4D0) [3]
  Effect of over-expression on bacteriophage T4 growth in groEL strains (in words): allele-specific complementation

B2: Gp31 (1-111): wild-type bacteriophage T4 Gp31 (gene product), cpn10 family co-chaperonin (protein, UniProt P17313 1-111, looked up)
Capsid assembly protein Gp31: MSEVQQLPIRAVGEYVILVSEPAQAGDEEVTESGLIIGKRVQGEVPELCVVHSVGPDVPEGFCEVGDLTSLPVGQIRNVPHPFVALGLKQPKEIKQKFVTCHYKAIPCLYK
Bacteriophage T4 (T4D0) [2]
  Growth of bacteriophage T4, SV1 (groEL^+): +++
  Growth of bacteriophage T4, SV2 groEL44: +++
  Growth of bacteriophage T4, SV3 groEL59: +++
  Growth of bacteriophage T4, SV6 groEL673: +++
E. coli SV6 groEL673
  Relative colony forming ability, SV6 groEL673: <10^−4
E. coli SV2 groEL44
  Relative colony forming ability, SV2 groEL44: 0.5 × 10^−3
Bacteriophage λ (b2cI)
  Growth of bacteriophage λ, SV1 (groEL^+): +++
  Growth of bacteriophage λ, SV2 groEL44: − (no visible plaques (<10^−4))
  Growth of bacteriophage λ, SV3 GroEL59: − (no visible plaques (<10^−4))
  Growth of bacteriophage λ, SV6 groEL673: − (no visible plaques (<10^−4))
Bacteriophage T4 (T4D0) [3]
  Effect of over-expression on bacteriophage T4 growth in groEL strains (in words): allows T4 growth in all strains

B3: sht-GroEL (191-376): histidine-tagged (short histidine tail; sht) minichaperone GroEL(191-376) (protein, UniProt P0A6F5 191-376, looked up, fragment)
chain: EGMQFDRGYLSPYFINKPETGAVELESPFILLADKKISNIREMLPVLEAVAKAGKPLLIIAEDVEGEALATLVVNTMRGIVKVAAVKAPGFGDRRKAMLQDIATLTGGTVISEEIGMELEKATLEDLGQAKRVVINKDTTTIIDGVGEEAAIQGRVAQIRQQIEEATSDYDREKLQERVAKLAGGV
modifications: short histidine tail
Bacteriophage T4 (T4D0) [2]
  Growth of bacteriophage T4, SV1 (groEL^+): +++
  Growth of bacteriophage T4, SV2 groEL44: − (no visible plaques (<10^−4))
  Growth of bacteriophage T4, SV3 groEL59: +++
  Growth of bacteriophage T4, SV6 groEL673: − (no visible plaques (<10^−4))
E. coli SV6 groEL673
  Relative colony forming ability, SV6 groEL673: <10^−4
E. coli SV2 groEL44
  Relative colony forming ability, SV2 groEL44: <10^−4
[4]; 0.00 % L(+)arabinose
  Plating ability: −
[4]; 0.01 % L(+)arabinose
  Plating ability: +/− (≦5% of the colonies and size reduced relative to that in presence of 0.2% L(+)arabinose)
[4]; 0.10 % L(+)arabinose
  Plating ability: + (about 30% of the colonies)
[4]; 0.15 % L(+)arabinose
  Plating ability: ++ (about 50% of the colonies relative to that in presence of 0.2% L(+)arabinose)
Bacteriophage λ (b2cI)
  Growth of bacteriophage λ, SV1 (groEL^+): +++
  Growth of bacteriophage λ, SV2 groEL44: − (no visible plaques (<10^−4))
  Growth of bacteriophage λ, SV3 GroEL59: − (no visible plaques (<10^−4))
  Growth of bacteriophage λ, SV6 groEL673: − (no visible plaques (<10^−4))
